In publication PMC5612244:

Assays:
[1] = target: recombinant EsGLUT4 extracellular region (between TM1 and TM2) (Eriocheir sinensis); assay: BLI; ForteBio Octet RED96; biotinylated rEsGLUT4 region (50 µg/ml) immobilised on streptavidin (SA) sensors; four serial concentrations of CHHBP, highest 1 µM (intracellular region) and 0.38 µM (extracellular region); association 300 s, dissociation 600 s; room temperature; physiological saline for crab
[2] = target: recombinant EsGLUT4 intracellular region (between TM6 and TM7) (Eriocheir sinensis); assay: as above

- Kd [1]: 2.52 nM
- Kd [2]: 6.81 nM
Substance: recombinant CHH binding protein (CHHBP), an E. sinensis flotillin-like protein (natural protein)
